One block for each binder: values may come before it.
Columns and labels:
CD40/Fc fusion protein [1] = target: T1, CD40/Fc fusion protein (human, UniProt P25942 21-193); test: BIAcore biosensor, CD40/Fc captured by goat anti-human IgG1 Fc; first experiment
T1 construct: extracellular domain; also called C40/Fc; CD40Fc recombinant receptor
Description: (§1) This example illustrates the binding affinities of several different CD40-L constructs. Affinity experiments were conducted by biospecific interaction analysis (BIA) using a biosensor, an instrument that combines a biological recognition mechanism with a sensing device or transducer. An exemplary biosensor is BIAcore™, from Pharmacia Biosensor AB (Uppsala, Sweden; see Fägerstam L. G., Techniques in Protein Chemistry II, ed. J. J. Villafranca, Acad. Press, NY, 1991). BIAcore™ uses the optical phenomenon surface plasmon resonance (Kretschmann and Raether, Z. Naturforschung, Teil. A 23:2135, 1968) to monitor the interaction of two biological molecules.
(§2) The biosensor chips were coated with goat anti-human IgG₁ Fc, which was used to bind CD40/Fc (prepared as described in Example 1) to the chip. The different constructs of CD40-L were then added at increasing concentrations; the chip was regenerated between the different constructs by the addition of sodium hydroxide. Two separate experiments were performed. In the first, the binding of a dimeric human CD40-L (Example 14), trimeric human CD40-L (Example 15), dimeric murine CD40-L (prepared substantially as described in Example 14 for human CD40-L/FC) and trimeric murine CD40-L (prepared substantially as described for the human CD40-L in Example 15) were compared. In the second experiment, the binding of trimeric human CD40-L was compared to the binding of two different preparations of monomeric human CD40-L prepared as described in Example 18. The resultant data were analyzed to determine the affinity and association rate constants of the different CD40-L constructs. Results are shown in Table 12 below, and in FIGS. 18 and 19.

CD40/Fc fusion protein [2] = target: T1, CD40/Fc fusion protein; test: BIAcore biosensor, CD40/Fc captured by goat anti-human IgG1 Fc; first experiment; K2 (site 2)
Description: as §1, §2

CD40/Fc fusion protein [3] = target: T1, CD40/Fc fusion protein; test: BIAcore biosensor, CD40/Fc captured by goat anti-human IgG1 Fc; first experiment; K1 (site 1)
Description: as §1, §2

CD40/Fc fusion protein [4] = target: T1, CD40/Fc fusion protein; test: BIAcore biosensor, CD40/Fc captured by goat anti-human IgG1 Fc; second experiment
Description: as §1
(§3) The biosensor chips were coated with goat anti-human IgG₁ Fc, which was used to bind CD40/Fc (prepared as described in Example 1) to the chip. The different constructs of CD40-L were then added at increasing concentrations; the chip was regenerated between the different constructs by the addition of sodium hydroxide. Two separate experiments were performed. […] The resultant data were analyzed to determine the affinity and association rate constants of the different CD40-L constructs. […]

CD40/Fc fusion protein [5] = target: T1, CD40/Fc fusion protein; test: BIAcore biosensor, CD40/Fc captured by goat anti-human IgG1 Fc; second experiment; K2 (site 2)
Description: as §1, §3

CD40/Fc fusion protein [6] = target: T1, CD40/Fc fusion protein; test: BIAcore biosensor, CD40/Fc captured by goat anti-human IgG1 Fc; second experiment; K1 (site 1)
Description: as §1, §3

CD40 on cells = CD40 on cells (UniProt P25942 21-277, limits assumed); test: cell-based or functional assay
Chain of CD40 on cells (P25942 21-277 limits assumed): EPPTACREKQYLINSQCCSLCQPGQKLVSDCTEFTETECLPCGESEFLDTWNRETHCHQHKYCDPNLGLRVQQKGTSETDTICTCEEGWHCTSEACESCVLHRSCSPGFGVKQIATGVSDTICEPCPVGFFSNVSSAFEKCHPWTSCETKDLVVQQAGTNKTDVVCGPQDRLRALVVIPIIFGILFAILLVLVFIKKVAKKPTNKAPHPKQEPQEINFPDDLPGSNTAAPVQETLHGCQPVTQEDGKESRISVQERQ

CD40/Fc fusion protein [7] = target: T1, CD40/Fc fusion protein; test: biosensor assay substantially as in Example 22; yeast-expressed protein
Description: as §2
Mutant 18PP had only a single mutation in the molecule, which was sufficient to affect secretion in yeast. Mutant 41 had two mutations, both of which were in the isoleucine residues of the zipper domain. The mutations in the zipper improve secretion from yeast without apparent effect on activity.

T1 sequence (P25942 other isoform, or with tags, fused parts or gaps limits assumed): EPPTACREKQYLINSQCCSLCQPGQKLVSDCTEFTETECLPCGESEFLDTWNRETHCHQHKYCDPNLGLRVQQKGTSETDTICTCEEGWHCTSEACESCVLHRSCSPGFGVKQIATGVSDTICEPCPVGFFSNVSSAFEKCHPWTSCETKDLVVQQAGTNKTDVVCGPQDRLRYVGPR

B1: CD40-L/FC2 soluble CD40-L/Fc fusion protein (Fc fusion)
chain: DYKDDDDKRSCDKTHTCPPCPAPELLGGPSVFLFPPKPKDTLMISRTPEVTCVVVDVSHEDPEVKFNWYVDGVEVHNAKTKPREEQYNSTYRVVSVLTVLHQDWLNGKEYKCKVSNKALPAPIEKTISKAKGQPREPQVYTLPPSRDELTKNQVSLTCLVKGFYPSDIAVEWESNGQPENNYKTTPPVLDSDGSFFLYSKLTVDKSRWQQGNVFSCSVMHGGGGSGGGGSGGGGSSSDKIEDERNLHEDFVFMKTIQRCNTGERSLSLLNCEEIKSQFEGFVKDIMLNKEETKKENSFEMQKGDQNPQIAAHVISEASSKTTSVLQWAEKGYYTMSNNLVTLENGKQLTVKRQGLYYIYAQVTFCSNREASSQAPFIASLCLKSPGRFERILLRAANTHSSAKPCGQQSIHLGGVFELQPGASVFVNVTDPSQVSHGTGFTSFGLLKL
notes: also called dimeric human CD40-L; Human Dimer
Site 1 (mol/mol CD40/Fc) (CD40/Fc fusion protein [1]): 0.013 mol/mol CD40/Fc | Site 2 (mol/mol CD40/Fc) (CD40/Fc fusion protein [1]): 0.049 mol/mol CD40/Fc | Ka (CD40/Fc fusion protein [2]): 7e+08 M⁻¹ | Ka (CD40/Fc fusion protein [3]): 1.6e+11 M⁻¹

B2: dimeric murine CD40-L (Fc fusion, not shown: a dimerising Fc or GST)
chain: HRRLDKVEEEVNLHEDFVFIKKLKRCNKGEGSLSLLNCEEMRRQFEDLVKDITLNKEEKKENSFEMQRGDEDPQIAAHVVSEANSNAASVLQWAKKGYYTMKSNLVMLENGKQLTVKREGLYYVYTQVTFCSNREPSSQRPFIVGLWLKPSSGSERILLKAANTHSSSQLCEQQSVHLGGVFELQAGASVFVNVTEASQVIHRVGFSSFGLLKL
notes: the whole entry is named; also called Murine Dimer
Site 1 (mol/mol CD40/Fc) (CD40/Fc fusion protein [1]): 0.05 mol/mol CD40/Fc | Site 2 (mol/mol CD40/Fc) (CD40/Fc fusion protein [1]): 0.14 mol/mol CD40/Fc

B4: trimeric human CD40-L (ligand)
chain: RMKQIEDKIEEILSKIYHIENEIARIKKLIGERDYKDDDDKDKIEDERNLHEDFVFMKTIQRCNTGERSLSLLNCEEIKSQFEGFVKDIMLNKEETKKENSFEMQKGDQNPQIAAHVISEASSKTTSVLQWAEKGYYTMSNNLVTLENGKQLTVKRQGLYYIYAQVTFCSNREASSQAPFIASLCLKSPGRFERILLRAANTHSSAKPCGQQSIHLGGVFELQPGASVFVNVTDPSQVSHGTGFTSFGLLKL
notes: Leader left out; also called Human Trimer; CD40-L trimer
Site 1 (mol/mol CD40/Fc) (CD40/Fc fusion protein [1]): 0.04 mol/mol CD40/Fc | Site 2 (mol/mol CD40/Fc) (CD40/Fc fusion protein [1]): 0.68 mol/mol CD40/Fc | Ka (CD40/Fc fusion protein [2]): 7.5e+07 M⁻¹ | Site 2 (mol/mol CD40/Fc) (CD40/Fc fusion protein [4]): 0.41 mol/mol CD40/Fc | Ka (CD40/Fc fusion protein [5]): 2.6e+07 M⁻¹ | Ka (CD40/Fc fusion protein [6]): 6.6e+08 M⁻¹ | Ka (CD40/Fc fusion protein [3]): 5e+09 M⁻¹

Results, then the binder that gave them:

Site 1 (mol/mol CD40/Fc) (CD40/Fc fusion protein [1]): 0.02 mol/mol CD40/Fc | Site 2 (mol/mol CD40/Fc) (CD40/Fc fusion protein [1]): 0.44 mol/mol CD40/Fc | Ka (CD40/Fc fusion protein [2]): 1.6e+08 M⁻¹ | Ka (CD40/Fc fusion protein [3]): 6e+10 M⁻¹
B3: trimeric murine CD40-L (ligand)
chain: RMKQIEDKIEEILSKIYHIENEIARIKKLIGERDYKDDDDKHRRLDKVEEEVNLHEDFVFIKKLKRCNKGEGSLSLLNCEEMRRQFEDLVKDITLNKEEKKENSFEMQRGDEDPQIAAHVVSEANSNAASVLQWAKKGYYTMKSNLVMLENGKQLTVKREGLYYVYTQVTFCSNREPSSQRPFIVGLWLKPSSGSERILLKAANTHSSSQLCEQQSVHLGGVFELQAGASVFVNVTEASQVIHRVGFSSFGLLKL
notes: also called Murine Trimer; muCD40LT

B-cell proliferation (U/µg), Experiment 2 (CD40 on cells): 15 U/µg | Ka (CD40/Fc fusion protein [7]): 7.7e+07 M⁻¹
B5: wild type CD40 ligand/zipper domain fusion protein expressed in yeast (ligand)
chain: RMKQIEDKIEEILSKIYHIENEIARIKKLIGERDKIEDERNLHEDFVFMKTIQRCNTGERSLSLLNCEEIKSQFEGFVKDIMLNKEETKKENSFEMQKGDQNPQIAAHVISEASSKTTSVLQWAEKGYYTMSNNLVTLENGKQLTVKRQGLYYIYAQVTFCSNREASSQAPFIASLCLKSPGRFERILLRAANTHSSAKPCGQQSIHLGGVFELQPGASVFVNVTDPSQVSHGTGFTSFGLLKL
notes: also called WT

From patent US20030091564A1 (published 2003)
